Data published in patent publication US20100215631A1, “ANTI-INFLAMMATORY COMPOSITION COMPRISING GLYCINE AND LACTOFERRIN AND THE USE THEREOF” (priority 2006, published 2010).

Legend:
Assay type in all cases: in vivo
Balb/C mice [1] = assay: Dose response of lactoferrin in zymosan-induced ear swelling mouse model (Example 3)
Balb/C mice [2] = assay: Zymosan-induced ear swelling in an inflammatory mouse model (Example 1); settings: daily gavage 0.1 mg lactoferrin and/or 50 mg glycine, versus non-supplemented mice
Description: Balb/C mice (8 weeks of age, Charles River, Maastricht, The Netherlands) were randomly assigned two control and three test groups and supplemented daily for three days with 0.1 mg lactoferrin (DMV, Veghel, The Netherlands), 50 mg glycine (Sigma, Zwijndrecht, The Netherlands) or a combination of both components (test groups 3, 4 and 5 respectively) or vehicle (control groups 1 and 2) was administered by gavage. At day two of the supplementation ear thickness was measured using a micrometer (Mitutoyo Digimatic, Veenendaal, The Netherlands) Subsequently 25 μl 0.5% zymosan (Sigma) in PBS (group 2-5) or vehicle (group 1) was injected subcutaneously in both ears. Ear thickness was measured 3, 6 and 24 hours (example 1) after injection after which the animals were sacrificed.
In mice injected in the ear with zymosan, lactoferrin (LF) and glycine (Gly) supplemented mice show a highest decrease in ear swelling when compared to non-supplemented mice, see Table 1. A clear synergistic effect of LF and Gly is observed.

TNF-α producing cells = assay: Ex-vivo ELISpot of TNF-α producing spleen cells from supplemented mice with zymosan-induced ear inflammation (Example 2); settings: 1 μg/ml LPS, after three days of oral supplementation
Description: The spleen was removed and pushed through a cell strainer. Red blood cell lysis was performed in 5 ml of could lysis buffer (4.15 g NH4Cl, 0.5 g KHCO3 and 18.6 mg Na2EDTA in 1 liter water at pH 7,3) for 5 minutes. Cells were washed twice in could RPMI (Invitrogen, Merelbeke, Belgium) and after centrifugation diluted to a concentration of 1.10^7 cells/ml. TNF-α producing cells were detected by ELISpot assay in the absence or presence of 1 μg/ml lipopolysaccharide (Sigma) (example 2).
Spleen cells were collected from mice with a zymosan-induced inflammation in the ear after three days of oral supplementation with water (=control), lactoferrin (LF), glycine or a combination of LF and glycine. The number of TNF-α producing cells was determined using an ELISpot assay. LF and glycine inhibit the LPS stimulated number of TNF producing cells by 92% and 97% respectively (back to not zymosan treated control levels). The combination of glycine and lactoferrin inhibited the number of TNF-α positive cells 50% below the […] injected control. This unexpected high rate of inhibition makes the combination of glycine with lactoferrin an excellent choice for the treatment of inflammatory diseases.

B1: lactoferrin (protein, UniProt P24627 20-708, looked up)
Lactotransferrin: APRKNVRWCTISQPEWFKCRRWQWRMKKLGAPSITCVRRAFALECIRAIAEKKADAVTLDGGMVFEAGRDPYKLRPVAAEIYGTKESPQTHYYAVAVVKKGSNFQLDQLQGRKSCHTGLGRSAGWIIPMGILRPYLSWTESLEPLQGAVAKFFSASCVPCIDRQAYPNLCQLCKGEGENQCACSSREPYFGYSGAFKCLQDGAGDVAFVKETTVFENLPEKADRDQYELLCLNNSRAPVDAFKECHLAQVPSHAVVARSVDGKEDLIWKLLSKAQEKFGKNKSRSFQLFGSPPGQRDLLFKDSALGFLRIPSKVDSALYLGSRYLTTLKNLRETAEEVKARYTRVVWCAVGPEEQKKCQQWSQQSGQNVTCATASTTDDCIVLVLKGEADALNLDGGYIYTAGKCGLVPVLAENRKSSKHSSLDCVLRPTEGYLAVAVVKKANEGLTWNSLKDKKSCHTAVDRTAGWNIPMGLIVNQTGSCAFDEFFSQSCAPGADPKSRLCALCAGDDQGLDKCVPNSKEKYYGYTGAFRCLAEDVGDVAFVKNDTVWENTNGESTADWAKNLNREDFRLLCLDGTRKPVTEAQSCHLAVAPNHAVVSRSDRAAHVKQVLLHQQALFGKNGKNCPDKFCLFKSETKNLLFNDNTECLAKLGGRPTYEEYLGTEYVTAIANLKKCSTSPLLEACAFLTR
notes: globular multifunctional protein of the transferrin family (DMV, Veghel)
B1 was tested, and the swelling (Balb/C mice [1]; 0.1 mg LF daily by gavage, time 1 hr) was 78, the swelling (Balb/C mice [1]; 0.1 mg LF daily by gavage, time 2 hr) was 108 and the swelling (Balb/C mice [1]; 0.1 mg LF daily by gavage, time 4 hr) was 109. For the same molecule, the swelling (Balb/C mice [1]; 1 mg LF daily by gavage, time 1 hr) was 73, the swelling (Balb/C mice [1]; 1 mg LF daily by gavage, time 2 hr) was 105 and the swelling (Balb/C mice [1]; 1 mg LF daily by gavage, time 4 hr) was 121. It also gave a swelling (Balb/C mice [1]; 5 mg LF daily by gavage, time 1 hr) of 99, a swelling (Balb/C mice [1]; 5 mg LF daily by gavage, time 2 hr) of 153 and a swelling (Balb/C mice [1]; 5 mg LF daily by gavage, time 4 hr) of 204. The Optimal dose (Balb/C mice [1]; mouse, daily gavage, higher than 0) was “less than 5 mg”, the “Decrease in ear swelling” value (Balb/C mice [2]; 3 hrs after zymosan injection in ears) was 39 ± 12 and the “Decrease in ear swelling” value (Balb/C mice [2]; 6 hrs after zymosan injection in ears) was 53 ± 17. For the same molecule, the “Inhibition of the LPS stimulated number of TNF producing cells” value (TNF-α producing cells) was 92%.
